The experiment addresses T1, REC114^15–159 (REC114 PH domain) (mouse, UniProt Q9CWH4 15-159).
T1 construct: Expressed from pProEXHTb; His-tag cleaved with TEV protease; source: E. coli BL21-Gold (DE3), purified (Ni2+ resin, TEV cleavage, second Ni2+ column, Superdex 200)
T1 sequence (looked up): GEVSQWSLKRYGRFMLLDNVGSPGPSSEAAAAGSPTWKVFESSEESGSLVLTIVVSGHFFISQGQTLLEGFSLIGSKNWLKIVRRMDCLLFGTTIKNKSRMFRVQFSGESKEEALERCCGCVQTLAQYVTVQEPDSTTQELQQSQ
Briefly: ITC; 25 °C, ITC200; 0.3-1.8 mM TOPOVIBL injected into 30-40 µM REC114 in the cell; 20 mM Tris pH 8.0, 100 mM NaCl, 5% glycerol, 5 mM β-mercaptoethanol; one-site model. Conditions: both partners purified. For orientation: Isothermal titration calorimetry measures the heat released or taken up as one component is titrated into another.

The results in this text go back to PMC9671922, “TOPOVIBL-REC114 interaction regulates meiotic DNA double-strand breaks” (Nature Communications, 2022).

B1: TOPOVIBL^559–576 peptide (peptide)
peptide: EDLWLQEVSNLSEWLNPG
notes: also called TOPOVIBL peptide; TOPOVIBL C-terminal peptide
Take B1: binding was characterised by a dissociation constant (Kd) of 3300 nM.

B2: 6xHis-TOPOVIBL C-terminal domain (CTD; 452–579) (domain or fragment, mouse, UniProt J3QMY9 452-579, looked up)
chain: SCDTEQHLTPEKNISAQNTKDQHKNIAQEFPEESIGQAENKRPKRGSPNHGREESRVLGSARDRSPPKSATRDRELTEVSLTARGSQTQAAHGRAQAAEAASPAGGLEDLWLQEVSNLSEWLNPGHRS
notes: Cloned in pProEXHTb; also called TOPOVIBL CTD; source: E. coli BL21Gold (DE3), purified (Ni-Chelating Sepharose, Superdex 200)
B2: the Kd is 1200 nM.

For orientation: Kd means a measure of binding affinity in units of concentration.
